In one test the target is HLA-B*44:05 (human). Briefly: UV peptide exchange, anti-b2m ELISA; exchange yield grade. The text has this: (§1) Candidate peptides for T cell based therapies according to the present invention were further tested for their MHC binding capacity (affinity). The individual peptide-MHC complexes were produced by UV-ligand exchange, where a UV-sensitive peptide is cleaved upon UV-irradiation and exchanged with the peptide of interest as analyzed. Only peptide candidates that can effectively bind and stabilize the peptide-receptive MHC molecules prevent dissociation of the MHC complexes. To determine the yield of the exchange reaction, an ELISA was performed based on the detection of the light chain (β2m) of stabilized MHC complexes. The assay was performed as generally described in Rodenko et al. (Rodenko et al., 2006).
(§2) 96 well MAXISorp plates (NUNC) were coated over night with 2 μg/ml streptavidin in PBS at room temperature, washed 4× and blocked for 1 h at 37° C. in 2% BSA containing blocking buffer. […] Peptide-MHC monomers of the UV-exchange reaction were diluted 100-fold in blocking buffer. Samples were incubated for 1 h at 37° C., washed four times, incubated with 2 μg/ml HRP conjugated anti-β2m for 1 h at 37° C., washed again and detected with TMB solution that is stopped with […]. Absorption was measured at 450 nm.

The target of a further test is T1, HLA-A*24:02 (human).
T1 construct: Peptide-receptive MHC class I monomer in the UV-ligand exchange assay
As to the kind of experiment: allele assigned to HLA ligand eluted from tissue (IP, LC-MS).

For a further test, the target named is T2, HLA-A*02:01 (human).
T2 construct: Peptide-receptive MHC class I monomer in the UV-ligand exchange assay
As to the kind of experiment: UV peptide exchange, anti-b2m ELISA; exchange yield grade.
Excerpt: as §1, §2

On to AEGPDHHSL, for which the binding result with HLA-B*44:05 is “binds”.
For the molecule TYLESSVRI, the binding result with HLA-A*24:02 is “binds”.
The molecule TLNVLITL had a peptide exchange yield with HLA-A*02:01 of 20 to 50%.
Still for that read-out and setting: the same measure for VLQSLQHEL: at least 75%; for FALGPIIKQL: 50 to 75%.
Consider SQAKQITIW, for which the binding result with HLA-B*44:05 is reported as “binds”.
For the molecule AETKQFWSA, the binding result in the test with HLA-B*44:05 is on record as “binds”.
Regarding VYIASSFKI, the binding result with HLA-A*24:02 is recorded as “binds”.
With SQIKSPVVF, the binding result in the test with HLA-A*24:02 is given as “binds”.
In the case of ALIVLHLSL, the peptide exchange yield with HLA-A*02:01 fell in the range of 20 to 50%.
Same read-out and setting: the value for FLLLEKGGEL was at least 75%; that for LLSRGILIL was at least 75%.
Take KEIEAQEAA: in the test with HLA-B*44:05, the binding result is “binds”.
Same read-out and setting: the same measure for METADRPEW: “binds”.
With HLFSVLSAI, the peptide exchange yield with HLA-A*02:01 was at least 75%.
Still for that read-out and setting: the value for SLQESLPNA was 50 to 75%.
With TEIGTVIKLF, the binding result with HLA-B*44:05 was “binds”.
In the test with HLA-A*02:01, ITPDSIPSV displayed a peptide exchange yield of 50 to 75%.
REQLDGATL: the binding result with HLA-B*44:05 is reported as “binds”.
As for VWILQKVNLAF, in the test with HLA-A*24:02, the binding result is listed as “binds”.
For the molecule REVAGASAL, in the test with HLA-B*44:05, the binding result is “binds”.
The same measure, in the same setting: the same measure for VEGVHFVQLL: “binds”.
For the molecule SHSSPTVSF, in the test with HLA-A*24:02, the binding result is recorded as “binds”.
ALGPMAFRV had a peptide exchange yield with HLA-A*02:01 of at least 75%.
Take FYNPRPPLI: in the test with HLA-A*24:02, the binding result is given as “binds”.
Consider GEAAAARPV, for which the binding result with HLA-B*44:05 is listed as “binds”.
As for IWRALGSLF, the binding result with HLA-A*24:02 is on record as “binds”.
Still for that read-out and setting: the same measure for LYDTVTHTF: “binds”; for FQLSGPVTF: “binds”.
IIIDRILLL: the peptide exchange yield with HLA-A*02:01 is at least 75%.
On the same count and under the same terms, the value for GLLGTLRVL was at least 75%; that for LVFESVVAA was at least 75%.
With IYLTKSNLVNM, the binding result with HLA-A*24:02 is reported as “binds”.
In the case of KEFAFLEHSL, in the test with HLA-B*44:05, the binding result is “binds”.
Same read-out and setting: the same measure for RELGVGIAL: “binds”.
Take VFVISGSHLF: the binding result with HLA-A*24:02 is listed as “binds”.
Same read-out and setting: the value for LWALAIPSL was “binds”; that for IFTGRNAYF was “binds”.
Same read-out and setting: the value for SYLKDHLSL was “binds”.
Still for that read-out and setting: the same measure for VFLLLPYPRF: “binds”.
Consider EEGRIITKW, for which, in the test with HLA-B*44:05, the binding result was “binds”.
As for FDLNIGSAY, the binding result with HLA-B*44:05 is reported as “binds”.
Molecule SLFPISLTV gave a peptide exchange yield with HLA-A*02:01 of at least 75%.
As for ILAPPQRISF, the binding result with HLA-A*24:02 is on record as “binds”.
Turning to ILVTAWKGV, in the test with HLA-A*02:01, the peptide exchange yield lay within 50 to 75%.
Turning to EYLGSENVF, in the test with HLA-A*24:02, the binding result is listed as “binds”.
On to VEAPHLPSF, for which, in the test with HLA-B*44:05, the binding result was “binds”.
With NFHTLAQQLLF, the binding result with HLA-A*24:02 is recorded as “binds”.
For RLLRLIPIL, the peptide exchange yield in the test with HLA-A*02:01 was at least 75%.
On the same count and under the same terms, the value for LLDSWNILI was at least 75%.
Regarding LYLETRSEF, the binding result with HLA-A*24:02 was “binds”.
On to KLPFFTNFL, for which, in the test with HLA-A*02:01, the peptide exchange yield is at least 75%.
In the test with HLA-A*02:01, ALNLSRLTV yielded a peptide exchange yield of at least 75%.
QYLTYYPSF: the binding result in the test with HLA-A*24:02 is reported as “binds”.
Still for that read-out and setting: the same measure for AWNESSAWLL: “binds”.
In the test with HLA-A*02:01, GLLDAFLRL yielded a peptide exchange yield of at least 75%.
TEMSVSALY: the binding result in the test with HLA-B*44:05 was “binds”.
On to LWEEKPVCL, for which the binding result with HLA-A*24:02 is on record as “binds”.
For KFPPSASEF, in the test with HLA-A*24:02, the binding result is listed as “binds”.
Still for that read-out and setting: the same measure for VLYPSHSSF: “binds”.
YMLEMDNSMKI showed a peptide exchange yield with HLA-A*02:01 of at least 75%.

(Values after US20240358755A1 (IMMATICS BIOTECHNOLOGIES, published 2024).)
